Experimental data from article doi:10.1101/2025.10.11.676729.

Biological target: Pyrococcus abyssi 70S ribosome (Pyrococcus abyssi (endogenous in P. abyssi)) (UniProt Q9V109)
Assay: cryo-EM structure

UniProt Q9V109, sequence (Q9V109 whole entry, looked up): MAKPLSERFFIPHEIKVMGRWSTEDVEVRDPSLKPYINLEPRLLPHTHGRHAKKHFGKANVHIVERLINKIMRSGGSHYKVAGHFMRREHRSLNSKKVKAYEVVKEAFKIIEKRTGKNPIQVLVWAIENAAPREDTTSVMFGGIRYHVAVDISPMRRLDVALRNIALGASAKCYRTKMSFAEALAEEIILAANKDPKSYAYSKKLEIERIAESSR

B1: Hib, endogenous, bound to ribosomes isolated from Pyrococcus abyssi cell extracts (natural protein)
chain: MVGIQVQEVMTDRYAKIDINAPLSEAIGIIEKEDPDLILVFDDNVYKGVLTQDLIIRSHLKWDPTKAKVRDVYKPAPVVKPTDDLSHAAKLLLETDLRSLPVGENKAEILGVISDMALLERVVAEEFGKRKVEEFMTKDVITLGPDDTVAKALATMRDHGISRIPVVDEEGKLEGLVTLHDLIIRFIKPRFKAQYGELAGEKIPPFSMKLREAMIKGVITIMPEATIREAVSTMKDNNIDGLVVVDENNKVVGILTVKDLLLPISRMVEKEARFYLQLGGDASALSEFTRERIINDIKRFVDGYADLLGNEGIIYLYIRRFNEKFRGVHLYQARMRVVTDRGVFIARGETWGAIQAVHDAIRAIERQLLQKAELERDIRYAKRFIEKLELWR
A percent of 70S particles that contained Hib of 51.6% was found for B1 in this work.
